Experiment: yeast display, Sf9 membrane polyspecificity reagent, FACS + sequencing; frameworks hold sequencing errors
Method in brief: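 Galactose induction of a Saccharomyces cerevisiae BJ5465 synthetic nanobody display library ran 36–48 hours. The cells were then stained for 1 hour at 4 °C with 10% biotinylated, detergent-solubilized Sf9 membrane reagent, pulled down on streptavidin microbeads and FACS-sorted into low and high (top ~1%) gates on expression and reagent-binding fluorescence. Labels for polyreactivity follow the gate of origin.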

Row | Sequence | polyreactivity (PSR sort gate)
1 | QVQHVESGGGLVQARGSLRLSCAASGFIIWGYAMGWYRQAPGKERELVAAISSSGGSTYYADSVKGRFTISRDNAKNTVYLQMNSLKPEDTAVYYCAAVRYQAYSGDGGYWGQGTQVTVSS | low polyreactivity
2 | QVQHVESGGGLVQSGGSLRLSCAASGRNFKFNPMGWYRQPPGKERELVAGITWTGSTTSYADSVKGRFTISRDNATNPVYLQMNSLKPEDTEVYYCDGDKIGFWYHGFYYRGQGTQVTVSS | low polyreactivity
3 | QVQHVESGGRLVQAGGSLRLSCAASGSIFGRYVMGWYRQAPGKESELVAAISGSGGSTNYADSVKGRFTISRDNAKNTVYLQMNSLKPEDTAVYYCATLRWFWYTRSTRIGDYWGQGTQVTVSS | high polyreactivity
4 | QVQHVESGGRLVQAGGSLRLSCAASGSNWIYAMGWYRQAPGKERELVAAISVSGDRTYYADSVKGRFTISRDNAKNTVYLQMNSLKPEDTAVYYSATPPYPGRDYWGQGTEVTVSS | high polyreactivity
5 | QVQHVESGGRLVQAGGSLRLSCAASGSTLDVYAMGWYRQAPGKERELVAAISWSVGSTYYADSVKGRFKISRDNAKNTVYLQMNRLKPEDTAVYYCAAEPYEYAYFGYDYWGQGTQVTVSS | high polyreactivity
6 | QVQHVESGGSLVQAGGSLRLSCAASGRTFRRYAMGWFRHAPGKAWELVAAIRSDGATYYADSVKGRFTISRDNAKNTVYLQMNSLKPEDTAVYYCNAVYVSSVTGHVDWGQGTQVTVSS | low polyreactivity
7 | QVQHVESGGVLVQAGGSLRLSCAASGRTFISNVMGWYRPAPGKERELVAGITGGGNTYYADSVKGRFTISRDNAKNTVYLQMNSLKPEDTAVYYCAVRYPSYGLSYVRYGYWGQGTQLTVSS | high polyreactivity
8 | QVQHVESGLGLVQAGCSLRLSCAASGITFYPYTMGWYRQAPGKERELVAAIDYNGDSTYYADSVKGRFTISRDNAKNTVYLQFNSLKPEDTAVYYCAADVWTLDPDEYDYWGQGTQVTVSS | low polyreactivity
9 | QVQHVESGRGLVQAGGILRLTCAASGRTFEYYAMGWYRQAPGKERELVAAITYSGDSTYYADSVKGRFTISRDNAKNTFYLQMNSLKPEDTAVYYCAADWSSLKDDYWGQGTQVTVSS | low polyreactivity
10 | QVQHVESGRGLVQAGGSLRLICAASGRIFDLNDMGRSRQAPGKERELVAAITSAGSTYYADSVKGRFTISRDNAKNTVYLQMNSLKPEDTAVYYCNKVARGVVRPGRVGSDYWAQGTQVTVSS | high polyreactivity
11 | QVQHVESGRGLVQAGGSLRLSCAASGLTFSRYAMGWYRQAPGKERELVAAITRSGGSTYYADSVKGRFTISRDNEKNTVYLQMKSLKPEDSAVYYCARTFTDRYGHWYGYWGQGTQVTVSS | high polyreactivity
12 | QVQHVESGVGLVQAGGSLRLSCAASGSTFDRYAMRWYRQAPGKERELVAAISWSAGRTYYADSVKGRFTISRDNAKNTVYLQMNSLKPEDTAVYYCAADQIVSGTYDYYWGQGTQVTVSS | low polyreactivity
13 | QVQHVESGVGLVQAGGSLRLSCAASGSTFSWYTMGWYRQAPGKERELVAAISWSGGRTYYADSVKGRFTISRDNAKNTVYLQMNSLKPEDTAVYYCAAYDYWYSLGDYQFYYWGQGTQVTVSS | low polyreactivity
14 | QVQHVESRGGLVQAGGSLRLSCAASGLILSGYTMGWYRQAPGKERELVAAISRSGGSTYYADSVKGRFTISRDNAKNTVYLQMNSLKPEDTAVYYCAKVPIYRYGVWAMNYWGQGTLVTVSS | high polyreactivity
15 | QVQHVESRGGLVQAGGSLRLSCAASGRTFSRNAMGRYRQAPGKERELVATITSDGSTNYADSVKGRFTISRDNAKNTVYLQMNSLKPEDTAVYYCAAGEQSSIIGAHDYWGQGTQVTVSS | low polyreactivity
16 | QVQHVESRGGLVQAGGSLRLSCAASGSTFGVYAMGRYRQAPGKERELDASISSGGRTKYADSVKGRFTISRDNAKNTVYLQMNSLKPEDTAVYFCAARIRYLGVRDNDNYYCGQGTQVTVSS | low polyreactivity

Row | Sequence | polyreactivity (PSR sort gate)
17 | QVQHVESVGGLVQAGGSLRLSCAASGRIFNYNSMGWYRLAPVKERELVAVITSVDSTNYADSVKGRFTISRDNAKNTVYLQMNSLKQEDTAVYYCASEYYSIRYGPHSIEVYCMEYWGQGTQVTVSS | low polyreactivity
18 | QVQHVESVGGLVQAGGSLRLSCAASGSIFSNNVMGWYRQAPGKERELVAAITVSGGRTYYADSVKGRFTISRDNAKNSVYLQMNSLKPEDTAVYYCATGVWKYSPDGDVGDQLSGYDYWGQGTQVTVSS | low polyreactivity
19 | QVQHVESVGGLVQAGGSLRLSSATSGSIFITNAMGCYRQPPGKESELVAAIRDSGDRTYYADSVKGRFTISRDNGKNNVSLQMNSLKPEDTAVYYCNARCQEPLNYDYWGQGTQGTVSS | low polyreactivity
20 | QVQHVESVVGLVQAGVSLPLSGASSGYIFLENAMGWYRQATGKERELDAAITVSGGGTYYADSVKGRFTISRDNAKITVYLQMNSLKPEDTAVYYCAADEDNPWLWFYYWGLGTQVTVSS | low polyreactivity
21 | QVQHVKSGGGLVQAGGSLRLSCAASGSIFGYNTMGWYRQAPGKERELVATITYRGGSTYYADSVKGRFTISRDNAKNTVYLQMNSLKPEDTAVYYCARRVTRYPYTTWDSAGDYWGQGTQVTVSS | high polyreactivity
22 | QVQIEESGGGLVQAGGSIRLSCAASGRIFFLNAMGWYRQAPGKERELVAAISKSGGSTYYADSEKGRFTISRDNAKNTGFLQMNSLKPEDTAVYYCAARLHRFIRVDFGYDYWGQGTQVTVSS | high polyreactivity
23 | QVQIEESGGGLVQAGGSLRLSCAASGFTFTYNDMGWNRQAPGKETEFVAAISSTGGSTYYADSVKGRFTISRDNAKNTVYLQMNSLKPEDTAVYYCAAEDSWYWDAWFDYWGQGTQVTVSS | low polyreactivity
24 | QVQIEESGGGLVQAGGSLRLSCAASGRIFSLNVMGWSRQAPRKERELVATIRGRGTSTYYADSVKGRFTISRDNAKNTVYLQMNSLKPEDTAVYYCAASGHGAYGYWGQGTQVTVSS | low polyreactivity
25 | QVQIEESGGGLVQAGRSLRLSCAASGFIFGSNAMGWYRQAPGKETELVAAISRSGGSTYYADSVKGRFTISRDYAKNTVYVQMNSLKPEDTAVYYGASYLYKTRYLTEYDYWGHGTQVTVSS | high polyreactivity
26 | QVQIEESRGGLVQAGGSLRLSCAASGRIIDRYAMGWSRPAPRKERELVAAISSGGRTYYADSVKGRFTISRDNAKNTVYLQMHSLKPEDTAVYYCNAVAYSLSGYNSWGQGTQVTVSS | high polyreactivity
27 | QVQIEESRGGLVQAGGSLRLSCAASGRTFYYYAMGWYRQAPGKERELVAAISYRGGSTYYADSVKGRFTISRDNAKNTVFLQLNSLKPEDTAVYYCAKYPHPLKYPGYPSEFDYWGQGTQVSVSS | low polyreactivity
28 | QVQILESGGGLVQAGGSLRVSCAASGSTFSYYAMGWYRQAPGKERELVAAIRSSGGSTYYADSVKGRFTISRDNAKNTVYLQMNSLKPEDTAVYYCAARRSVGYRRYDYWGQGTQVTVSS | high polyreactivity
29 | QVQIVDSGGGLVQAGGSLRLSCAASGSTFKPYAMGWYRQAPGKERELVAAITFSGGSTYYADSVKGRFTISRDNAKNTVYLQMNSLKPEDTAVYDCAARAFKFNGYYYWGQGTQVTVSS | high polyreactivity
30 | QVQIVDSGGGLVQAGGSLRLSCAASGSTFRAYAMGWYRQSPGKEWELVAAISSSGGSTYYADSVKGRFTISRDNAKITVYLQMNSLKPEDTAVYYFAAAFLAAGRNVRYYWGQGTQVTVSS | high polyreactivity
31 | QVQIVESAAGLVQAGGSLRLSCAASGLTFTTYSKGWYRQAPGKERELVAAISRRGSRTYYADSVKGRFTISRDNSKNTVYLQMNSLKPEDTAVYYCNALTGSFKTYSFDYWGQGTQVTVSS | high polyreactivity

— the nanobody polyreactivity screen of Harvey et al. (2022)
